Earlier results on 1 substance are cited in publication PMC8915186.

The target in this data set is IL-1R1 (Homo sapiens) (UniProt P14778).
UniProt P14778, sequence (P14778 18-569): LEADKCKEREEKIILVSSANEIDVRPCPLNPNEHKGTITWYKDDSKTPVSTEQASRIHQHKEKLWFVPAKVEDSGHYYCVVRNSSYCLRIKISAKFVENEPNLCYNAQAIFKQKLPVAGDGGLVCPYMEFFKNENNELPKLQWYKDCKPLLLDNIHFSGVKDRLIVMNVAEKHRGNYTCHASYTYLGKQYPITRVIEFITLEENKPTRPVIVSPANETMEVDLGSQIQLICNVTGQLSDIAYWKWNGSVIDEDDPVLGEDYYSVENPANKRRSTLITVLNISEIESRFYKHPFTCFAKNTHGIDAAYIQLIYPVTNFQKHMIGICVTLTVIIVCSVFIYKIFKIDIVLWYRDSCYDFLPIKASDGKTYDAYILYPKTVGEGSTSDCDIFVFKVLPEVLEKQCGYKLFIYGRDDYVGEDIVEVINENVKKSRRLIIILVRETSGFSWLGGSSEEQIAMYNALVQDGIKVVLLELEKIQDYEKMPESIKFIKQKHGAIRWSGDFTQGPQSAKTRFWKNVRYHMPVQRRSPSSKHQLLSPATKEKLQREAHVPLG

For IL-1β (from UniProt P01584), the Kd is 2 nM.

What is called Kd is the concentration at which binding is half-saturated.
